Source: paper PMC7395460, “Structural mechanism of helicase loading onto replication origin DNA by ORC-Cdc6” (Proceedings of the National Academy of Sciences of the …, 2020)

What was measured:
Conditions in all cases: both partners purified
[1] = molecular target: T1, origin recognition complex (Orc1-6; ORC) (S. cerevisiae, UniProt P54784 1-914; P32833 1-620; P54790 1-616; P54791 1-529; P50874 1-479; P38826 …); experiment: cryo-EM structure; semi-attached OCCM, 4.3 Å; assembled from purified ORC, Cdc6, Cdt1 and mutant Mcm2-7 on pUC19-ARS1 DNA beads with 3 mM ATPγS, 15 min at 24 °C, eluted with DNase I
T1 construct: Orc1, subunit of the S. cerevisiae origin recognition complex; Orc2, subunit of the S. cerevisiae origin recognition complex; Orc3, subunit of the S. cerevisiae origin recognition complex; Orc4, subunit of the S. cerevisiae origin recognition complex; Orc5, subunit of the S. cerevisiae origin recognition complex; Orc6, subunit of the S. cerevisiae origin recognition complex; copies: + + + + +

Orc1 = molecular target: T2, Orc1 (S. cerevisiae, UniProt P54784 1-914); experiment: as above
T2 construct: Orc1, subunit of the S. cerevisiae origin recognition complex; Stood in the assay as a subunit of ORC
T2 sequence: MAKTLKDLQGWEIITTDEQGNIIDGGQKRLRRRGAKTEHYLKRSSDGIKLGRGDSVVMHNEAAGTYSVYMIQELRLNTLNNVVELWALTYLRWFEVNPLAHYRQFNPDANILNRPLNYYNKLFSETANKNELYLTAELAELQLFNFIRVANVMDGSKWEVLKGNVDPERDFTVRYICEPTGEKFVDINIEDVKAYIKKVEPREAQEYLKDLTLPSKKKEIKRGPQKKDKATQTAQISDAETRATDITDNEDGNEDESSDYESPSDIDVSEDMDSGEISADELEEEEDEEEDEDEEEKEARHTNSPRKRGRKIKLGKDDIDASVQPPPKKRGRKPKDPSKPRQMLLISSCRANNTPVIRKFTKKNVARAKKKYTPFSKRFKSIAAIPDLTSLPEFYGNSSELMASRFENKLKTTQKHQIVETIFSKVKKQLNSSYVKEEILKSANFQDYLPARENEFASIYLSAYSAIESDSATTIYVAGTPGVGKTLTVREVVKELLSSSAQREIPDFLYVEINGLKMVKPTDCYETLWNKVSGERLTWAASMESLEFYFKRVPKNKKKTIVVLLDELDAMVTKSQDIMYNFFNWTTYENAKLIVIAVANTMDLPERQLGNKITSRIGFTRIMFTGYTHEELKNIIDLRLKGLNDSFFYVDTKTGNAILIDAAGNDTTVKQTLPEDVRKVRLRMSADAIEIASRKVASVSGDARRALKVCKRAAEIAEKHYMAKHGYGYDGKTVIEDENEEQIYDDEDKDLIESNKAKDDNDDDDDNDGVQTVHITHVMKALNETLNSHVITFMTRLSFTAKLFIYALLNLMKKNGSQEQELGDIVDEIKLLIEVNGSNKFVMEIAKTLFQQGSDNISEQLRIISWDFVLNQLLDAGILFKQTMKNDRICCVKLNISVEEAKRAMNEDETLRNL

Mcm7 = molecular target: T3, Mcm7 (S. cerevisiae, UniProt P38132 1-845); experiment: cryo-EM structure; pre-insertion OCCM, 8.1 Å; same loading reaction (purified ORC, Cdc6, Cdt1, mutant Mcm2-7, ARS1 DNA, ATPγS); models docked as rigid bodies
T3 construct: Mcm7 of S. cerevisiae; Stood in the assay as a subunit of the mutant Mcm2-7; in the semi-attached OCCM only its WHD is resolved
T3 sequence (looked up): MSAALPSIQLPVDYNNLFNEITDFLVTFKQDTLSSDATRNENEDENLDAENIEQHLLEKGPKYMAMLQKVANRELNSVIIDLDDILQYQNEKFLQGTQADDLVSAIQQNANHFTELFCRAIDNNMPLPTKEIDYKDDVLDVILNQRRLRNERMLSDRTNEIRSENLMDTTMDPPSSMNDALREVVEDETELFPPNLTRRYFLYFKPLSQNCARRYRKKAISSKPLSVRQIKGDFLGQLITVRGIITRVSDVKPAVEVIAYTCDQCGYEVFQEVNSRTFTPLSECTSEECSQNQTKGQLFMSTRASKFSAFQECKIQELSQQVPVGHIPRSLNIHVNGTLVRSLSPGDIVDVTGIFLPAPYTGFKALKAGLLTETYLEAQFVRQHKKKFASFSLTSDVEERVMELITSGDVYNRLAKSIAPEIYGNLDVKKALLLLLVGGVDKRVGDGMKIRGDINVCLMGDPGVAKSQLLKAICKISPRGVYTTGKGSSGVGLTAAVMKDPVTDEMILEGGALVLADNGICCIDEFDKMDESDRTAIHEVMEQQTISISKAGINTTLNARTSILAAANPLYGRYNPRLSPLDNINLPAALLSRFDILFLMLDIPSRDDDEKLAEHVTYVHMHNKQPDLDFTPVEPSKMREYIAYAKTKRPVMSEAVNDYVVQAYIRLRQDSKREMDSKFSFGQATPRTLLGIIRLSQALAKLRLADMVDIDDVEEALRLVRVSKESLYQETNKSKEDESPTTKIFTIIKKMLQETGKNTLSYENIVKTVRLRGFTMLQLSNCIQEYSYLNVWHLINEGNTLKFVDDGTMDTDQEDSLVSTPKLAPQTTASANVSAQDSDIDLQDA

Mcm3 = molecular target: T4, Mcm3 (S. cerevisiae, UniProt P24279 1-971); experiment: as above
T4 construct: Mcm3 of S. cerevisiae; Stood in the assay as a subunit of the mutant Mcm2-7; in the semi-attached OCCM only its WHD is resolved

Measured: binding result

T4 sequence (P24279 whole entry): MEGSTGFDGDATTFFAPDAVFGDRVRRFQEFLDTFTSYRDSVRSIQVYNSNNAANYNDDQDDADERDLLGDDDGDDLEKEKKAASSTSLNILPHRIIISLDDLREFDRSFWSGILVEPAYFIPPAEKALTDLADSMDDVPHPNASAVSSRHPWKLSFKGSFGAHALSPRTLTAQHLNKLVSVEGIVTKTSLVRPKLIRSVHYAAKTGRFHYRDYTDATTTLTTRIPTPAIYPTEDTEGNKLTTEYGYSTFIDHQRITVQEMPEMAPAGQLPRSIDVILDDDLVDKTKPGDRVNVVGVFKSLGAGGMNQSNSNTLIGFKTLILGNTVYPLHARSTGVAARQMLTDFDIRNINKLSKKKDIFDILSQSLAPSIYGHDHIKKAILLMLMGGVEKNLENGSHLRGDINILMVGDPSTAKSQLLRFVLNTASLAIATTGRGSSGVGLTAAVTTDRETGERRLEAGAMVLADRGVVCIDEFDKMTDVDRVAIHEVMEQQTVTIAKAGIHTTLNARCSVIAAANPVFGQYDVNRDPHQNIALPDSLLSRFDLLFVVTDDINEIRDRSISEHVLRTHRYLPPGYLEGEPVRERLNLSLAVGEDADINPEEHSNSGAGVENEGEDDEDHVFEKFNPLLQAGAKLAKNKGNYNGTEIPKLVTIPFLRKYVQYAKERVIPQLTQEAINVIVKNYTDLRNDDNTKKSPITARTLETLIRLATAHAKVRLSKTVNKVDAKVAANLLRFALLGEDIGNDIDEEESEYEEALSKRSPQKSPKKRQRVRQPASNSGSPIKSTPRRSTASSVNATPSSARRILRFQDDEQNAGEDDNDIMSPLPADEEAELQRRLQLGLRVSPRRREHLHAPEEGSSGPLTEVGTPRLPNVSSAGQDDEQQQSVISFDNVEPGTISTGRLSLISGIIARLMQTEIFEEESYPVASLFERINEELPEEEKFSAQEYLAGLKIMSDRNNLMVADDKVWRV

B1: Cdc6 (natural protein, S. cerevisiae)
chain: MSAIPITPTKRIRRNLFDDAPATPPRPLKRKKLQFTDVTPESSPEKLQFGSQSIFLRTKALLQKSSELVNLNSSDGALPARTAEYEQVMNFLAKAISEHRSDSLYITGPPGTGKTAQLDMIIRQKFQSLPLSLSTPRSKDVLRHTNPNLQNLSWFELPDGRLESVAVTSINCISLGEPSSIFQKIFDSFQDLNGPTLQIKNMQHLQKFLEPYHKKTTFVVVLDEMDRLLHANTSETQSVRTILELFLLAKLPTVSFVLIGMANSLDMKDRFLSRLNLDRGLLPQTIVFQPYTAEQMYEIVIQKMSSLPTIIFQPMAIKFAAKKCAGNTGDLRKLFDVLRGSIEIYELEKRFLLSPTRGSLNSAQVPLTPTTSPVKKSYPEPQGKIGLNYIAKVFSKFVNNNSTRTRIAKLNIQQKLILCTIIQSLKLNSDATIDESFDHYIKAITKTDTLAPLQRNEFLEICTILETCGLVSIKKTKCKGKTKRFVDKIDVDLDMREFYDEMTKISILKPFLH
notes: Cdc6 of S. cerevisiae
binds: all assays above
